The values that follow come from PMC5063953 (Biochemical Pharmacology, 2016).

The target in experiment [1] is N-terminally double c-myc labelled wildtype human GLP-1R (human) (UniProt P43220).
Experiment [2] has as its target human GLP-1R E7.63^408A (human) (UniProt P43220).
Experiment [3] concerns the target human GLP-1R K4.64^288A (human) (UniProt P43220).
In experiment [4] the target is human GLP-1R K6.35^346A (human) (UniProt P43220).
For experiment [5], the target named is human GLP-1R K6.40^351A (human) (UniProt P43220).
Experiment [6] addresses human GLP-1R N2.52^182A (human) (UniProt P43220).
The target in experiment [7] is human GLP-1R Q7.65^410A (human) (UniProt P43220).
Experiment [8] deals with human GLP-1R R2.46^176A (human) (UniProt P43220).
Experiment [9] concerns the target human GLP-1R R3.30^227A (human) (UniProt P43220).
Experiment [10] addresses human GLP-1R R5.40^310A (human) (UniProt P43220).
The target in experiment [11] is human GLP-1R R5.56^326A (human) (UniProt P43220).
For experiment [12], the target named is human GLP-1R R6.37^348A (human) (UniProt P43220).
Experiment [13] deals with human GLP-1R Y3.53^250A (human) (UniProt P43220).
The target in experiment [14] is N-terminally double c-myc labelled wildtype human GLP-1R (human) (UniProt P43220). Description: radioligand binding.
Experiment [15] deals with human GLP-1R E7.63^408A (human) (UniProt P43220). In words: radioligand binding.
Experiment [16] has as its target human GLP-1R K4.64^288A (human) (UniProt P43220). Description: radioligand binding.
Experiment [17] has as its target human GLP-1R K6.35^346A (human) (UniProt P43220). Description: radioligand binding.
Experiment [18] deals with human GLP-1R K6.40^351A (human) (UniProt P43220). In words: radioligand binding.
Experiment [19] deals with human GLP-1R Q7.65^410A (human) (UniProt P43220). Description: radioligand binding.
In experiment [20] the target is human GLP-1R R2.46^176A (human) (UniProt P43220). In words: radioligand binding.
In experiment [21] the target is human GLP-1R R3.30^227A (human) (UniProt P43220). Description: radioligand binding.
Experiment [22] concerns the target human GLP-1R R5.40^310A (human) (UniProt P43220). In words: radioligand binding.
Experiment [23] concerns the target human GLP-1R R5.56^326A (human) (UniProt P43220). In words: radioligand binding.
For experiment [24], the target named is human GLP-1R R6.37^348A (human) (UniProt P43220). Description: radioligand binding.
In experiment [25] the target is human GLP-1R Y3.53^250A (human) (UniProt P43220). In words: radioligand binding.
A further experiment relates to hGIPR. The conditions noted are these: R5.40A; ref [71]; cited from earlier work.

As for “exendin-4 (from UniProt P26349 48-87) (peptide)”, the −Log KA (functional affinity) from operational model fit of cAMP accumulation curves in [1] was 9.24 −Log KA; in [2], 8.89 −Log KA; in experiment [3] it was 8.16 −Log KA; in [4], 9.91 −Log KA; in [5], 9.31 −Log KA; in experiment [6] it was 9.16 −Log KA. In addition, the −Log KA (functional affinity) from operational model fit of cAMP accumulation curves in experiment [7] was 9.41 −Log KA; in experiment [8] it was 8.95 −Log KA; in experiment [9] it was 8.13 −Log KA; in experiment [10], 7.79 −Log KA; in experiment [11], 9.22 −Log KA; in experiment [12], 9.37 −Log KA. Moreover, the −Log KA (functional affinity) from operational model fit of cAMP accumulation curves in experiment [13] was 9.37 −Log KA. Moreover, the −Log KA (functional affinity) from operational model fit of iCa2+ mobilisation curves in experiment [1] is 7.46 −Log KA; in [2] it was 7.01 −Log KA; in experiment [4], 7.78 −Log KA; in experiment [5] it was 7.15 −Log KA; in experiment [7] it was 7.1 −Log KA; in experiment [8], 7.39 −Log KA. Further, the −Log KA (functional affinity) from operational model fit of iCa2+ mobilisation curves in experiment [9] is 6.82 −Log KA; in experiment [11], 7.1 −Log KA; in [12], 7.08 −Log KA. The −Log KA (functional affinity) from operational model fit of pERK1/2 curves was 8.31 −Log KA in [1]; 8.35 −Log KA in experiment [2]; 7.01 −Log KA in experiment [3]; 8.21 −Log KA in experiment [4]; 8.12 −Log KA in experiment [5]; 8.21 −Log KA in experiment [6]. In addition, the −Log KA (functional affinity) from operational model fit of pERK1/2 curves was 8.35 −Log KA in [7]; 8.12 −Log KA in [8]; 7.31 −Log KA in experiment [9]; 7.53 −Log KA in [10]; 8.33 −Log KA in experiment [11]; 8.35 −Log KA in experiment [12]. Further, the −Log KA (functional affinity) from operational model fit of pERK1/2 curves in experiment [13] is 8.11 −Log KA. For the same substance, the pKi turned out to be 8.87 pKi in [14]; 8.29 pKi in experiment [15]; 7.39 pKi in experiment [16]; 9.34 pKi in experiment [17]; 8.92 pKi in [18]; 9.08 pKi in experiment [19]. The pKi in experiment [20] was found to be 8.61 pKi; in [21] it was 7.6 pKi; in experiment [22], 7.99 pKi; in experiment [23] it was 8.59 pKi; in [24] it was 8.8 pKi; in experiment [25] it was 8.68 pKi.
Take “glucose-dependent insulinotropic peptide (YAEGTFISDYSIAMDKIHQQDFVNWLLAQKGKKNDWKHNITQ; Gastric inhibitory polypeptide; UniProt P09681 52-93, looked up) [GIP]”: in the experiment on hGIPR, the “Effect compared with WT: cAMP production” value is given as “Reduced GIP mediated cAMP production”.
